The values that follow come from publication PMC10575590, “Molecular basis of ClC-6 function and its impairment in human disease” (Science Advances, 2023).

This data set deals with the molecule itself. Briefly: cryo-EM structure; purified ClC-6 in 150 mM NaCl, 0.1% digitonin, 20 mM Hepes pH 7.4; apo, with 2 mM ATP and 2 mM MgCl2, and the Y553C mutant; C2 symmetry imposed.

B1: human ClC-6 (natural protein)
chain: MAGCRGSLCCCCRWCCCCGERETRTPEELTILGETQEEEDEILPRKDYESLDYDRCINDPYLEVLETMDNKKGRRYEAVKWMVVFAIGVCTGLVGLFVDFFVRLFTQLKFGVVQTSVEECSQKGCLALSLLELLGFNLTFVFLASLLVLIEPVAAGSGIPEVKCYLNGVKVPGIVRLRTLLCKVLGVLFSVAGGLFVEKEGPMIHSGSVVGAGLPQFQSISLRKIQFNFPYFRSDRDKRDFVSAGAAAGVAAAFGAPIGGTLFSLEEGSSFWNQGLTWKVLFCSMSATFTLNFFRSGIQFGSWGSFQLPGLLNFGEFKCSDSDKKCHLWTAMDLGFFVVMGVIGGLLGATFNCLNKRLAKYRMRNVHPKPKLVRVLESLLVSLVTTVVVFVASMVLGECRQMSSSSQIGNDSFQLQVTEDVNSSIKTFFCPNDTYNDMATLFFNPQESAILQLFHQDGTFSPVTLALFFVLYFLLACWTYGISVPSGLFVPSLLCGAAFGRLVANVLKSYIGLGHIYSGTFALIGAAAFLGGVVRMTISLTVILIESTNEITYGLPIMVTLMVAKWTGDFFNKGIYDIHVGLRGVPLLEWETEVEMDKLRASDIMEPNLTYVYPHTRIQSLVSILRTTVHHAFPVVTENRGNEKEFMKGNQLISNNIKFKKSSILTRAGEQRKRSQSMKSYPSSELRNMCDEHIASEEPAEKEDLLQQMLERRYTPYPNLYPDQSPSEDWTMEERFRPLTFHGLILRSQLVTLLVRGVCYSESQSSASQPRLSYAEMAEDYPRYPDIHDLDLTLLNPRMIVDVTPYMNPSPFTVSPNTHVSQVFNLFRTMGLRHLPVVNAVGEIVGIITRHNLTYEFLQARLRQHYQTI
notes: ClC-6 (chloride-proton exchanger), human; cDNA in the pEG BacMam vector; residues up to H851 are seen in the structure, so the whole protein is likely; also called WT ClC-6; apo-ClC-6; source: HEK293F cells, BacMam virus, purified (Strep-Tactin Sepharose, size exclusion chromatography) in digitonin
On to B1, for which the “stoichiometry N” value was 2.

B2: ClC-6 mutant (Y553C) (natural protein, human)
chain: MAGCRGSLCCCCRWCCCCGERETRTPEELTILGETQEEEDEILPRKDYESLDYDRCINDPYLEVLETMDNKKGRRYEAVKWMVVFAIGVCTGLVGLFVDFFVRLFTQLKFGVVQTSVEECSQKGCLALSLLELLGFNLTFVFLASLLVLIEPVAAGSGIPEVKCYLNGVKVPGIVRLRTLLCKVLGVLFSVAGGLFVEKEGPMIHSGSVVGAGLPQFQSISLRKIQFNFPYFRSDRDKRDFVSAGAAAGVAAAFGAPIGGTLFSLEEGSSFWNQGLTWKVLFCSMSATFTLNFFRSGIQFGSWGSFQLPGLLNFGEFKCSDSDKKCHLWTAMDLGFFVVMGVIGGLLGATFNCLNKRLAKYRMRNVHPKPKLVRVLESLLVSLVTTVVVFVASMVLGECRQMSSSSQIGNDSFQLQVTEDVNSSIKTFFCPNDTYNDMATLFFNPQESAILQLFHQDGTFSPVTLALFFVLYFLLACWTYGISVPSGLFVPSLLCGAAFGRLVANVLKSYIGLGHIYSGTFALIGAAAFLGGVVRMTISLTVILIESTNEITCGLPIMVTLMVAKWTGDFFNKGIYDIHVGLRGVPLLEWETEVEMDKLRASDIMEPNLTYVYPHTRIQSLVSILRTTVHHAFPVVTENRGNEKEFMKGNQLISNNIKFKKSSILTRAGEQRKRSQSMKSYPSSELRNMCDEHIASEEPAEKEDLLQQMLERRYTPYPNLYPDQSPSEDWTMEERFRPLTFHGLILRSQLVTLLVRGVCYSESQSSASQPRLSYAEMAEDYPRYPDIHDLDLTLLNPRMIVDVTPYMNPSPFTVSPNTHVSQVFNLFRTMGLRHLPVVNAVGEIVGIITRHNLTYEFLQARLRQHYQTI
notes: ClC-6, human, with the disease-causing patient variant p.Y553C; made as apo-ClC-6; Variant found in patients (heterozygous p.Y553C), so the origin is written as natural; also called Y553C mutant; p.Y553C; source: HEK293F cells, BacMam virus, purified (Strep-Tactin Sepharose, size exclusion chromatography) in digitonin
For the protein B2, the binding result is recorded as “binds”.

As usually defined, the stoichiometry N is a count of units in the complex or per binding partner.
